Laboratory results: paper PMC4915676, “Dissociation Dynamics of XPC-RAD23B from Damaged DNA Is a Determining Factor of NER Efficiency”

T1: UvrA (UniProt P0A698 1-940)
T1 sequence: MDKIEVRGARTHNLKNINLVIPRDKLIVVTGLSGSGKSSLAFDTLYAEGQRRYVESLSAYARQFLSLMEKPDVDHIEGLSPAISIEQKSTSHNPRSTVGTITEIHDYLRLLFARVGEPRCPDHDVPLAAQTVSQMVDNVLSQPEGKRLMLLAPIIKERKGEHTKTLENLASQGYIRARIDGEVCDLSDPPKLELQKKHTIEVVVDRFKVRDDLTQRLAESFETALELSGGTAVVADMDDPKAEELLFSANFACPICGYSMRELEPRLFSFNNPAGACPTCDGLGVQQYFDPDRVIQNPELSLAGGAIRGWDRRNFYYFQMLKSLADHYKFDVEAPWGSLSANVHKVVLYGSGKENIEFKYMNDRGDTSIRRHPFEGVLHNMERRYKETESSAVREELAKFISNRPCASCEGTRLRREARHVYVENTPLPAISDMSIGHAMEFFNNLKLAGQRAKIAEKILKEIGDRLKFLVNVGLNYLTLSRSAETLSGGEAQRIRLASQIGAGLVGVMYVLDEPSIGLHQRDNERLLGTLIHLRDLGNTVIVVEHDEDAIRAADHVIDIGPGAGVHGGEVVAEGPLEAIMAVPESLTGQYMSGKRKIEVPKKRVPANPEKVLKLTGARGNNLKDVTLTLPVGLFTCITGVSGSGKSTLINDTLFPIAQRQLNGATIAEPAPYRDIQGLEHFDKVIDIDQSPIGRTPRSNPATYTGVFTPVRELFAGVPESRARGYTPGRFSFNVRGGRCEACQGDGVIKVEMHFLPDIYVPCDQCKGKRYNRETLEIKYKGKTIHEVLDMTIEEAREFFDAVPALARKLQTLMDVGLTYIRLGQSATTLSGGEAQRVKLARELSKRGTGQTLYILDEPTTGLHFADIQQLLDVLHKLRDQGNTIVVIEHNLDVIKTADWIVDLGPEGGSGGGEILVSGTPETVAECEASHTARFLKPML

B1: NarI-G1 mono-FAAF 55-mer (dsDNA)
DNA 1: CCACTCCTATCCACCATCCATCTTACTCTCGGCGCCATCACCACTCACCACCACA
DNA 2: TGTGGTGGTGAGTGGTGATGGCGCCGAGAGTAAGATGGATGGTGGATAGGAGTGG
modifications: dG-FAAF at G31 (G1) of strand 1
B2: NarI-G2 mono-FAAF 55-mer (dsDNA)
DNA 1: B1 DNA 1
DNA 2: B1 DNA 2
modifications: dG-FAAF at G32 (G2) of strand 1
B3: NarI-G1G3 di-FAAF 55-mer (dsDNA)
DNA 1: B1 DNA 1
DNA 2: B1 DNA 2
modifications: dG-FAAF at G31 and G34 (G1, G3) of strand 1
B4: NarI-G2G3 di-FAAF 55-mer (dsDNA)
DNA 1: B1 DNA 1
DNA 2: B1 DNA 2
modifications: dG-FAAF at G32 and G34 (G2, G3) of strand 1
B5: NarI-G3 mono-FAAF 55-mer (dsDNA)
DNA 1: B1 DNA 1
DNA 2: B1 DNA 2
modifications: dG-FAAF at G34 (G3) of strand 1
B6: NarI-G1G2 di-FAAF 55-mer (dsDNA)
DNA 1: B1 DNA 1
DNA 2: B1 DNA 2
modifications: dG-FAAF at G31 and G32 (G1, G2) of strand 1

Tests used:
UvrA = biological target: T1, UvrA; experiment: SPR; 0.5 mM ATP, 5 mM Mg2+; SPR: HBS-P+ (10 mM HEPES, 150 mM NaCl, 0.05% P20), 5 mM MgCl2, 1 mM DTT, 100 ug/mL BSA (+0.5 mM ATP for UvrA), pH and temperature not stated; EMSA: 20 mM Hepes-KOH pH 7.9, 75 mM KCl, 5 mM MgCl2, 1 mM DTT, 5% glycerol, 100 ug/mL BSA, 30 C; settings: protein: recombinant; chain copies: 2; label: 5'-biotin on strand 1; blunt
XPC-RAD23B [1] = biological target: T2, XPC-RAD23B (Homo sapiens, UniProt Q01831;P54727 1-940;1-409); experiment: SPR; 5 mM Mg2+; SPR: HBS-P+ (10 mM HEPES, 150 mM NaCl, 0.05% P20), 5 mM MgCl2, 1 mM DTT, 100 ug/mL BSA (+0.5 mM ATP for UvrA), pH and temperature not stated; EMSA: 20 mM Hepes-KOH pH 7.9, 75 mM KCl, 5 mM MgCl2, 1 mM DTT, 5% glycerol, 100 ug/mL BSA, 30 C; settings: protein: recombinant; copies: 1;1; label: 5'-biotin on strand 1; blunt
T2 sequence (Q01831 whole entry, chain 1 of 2): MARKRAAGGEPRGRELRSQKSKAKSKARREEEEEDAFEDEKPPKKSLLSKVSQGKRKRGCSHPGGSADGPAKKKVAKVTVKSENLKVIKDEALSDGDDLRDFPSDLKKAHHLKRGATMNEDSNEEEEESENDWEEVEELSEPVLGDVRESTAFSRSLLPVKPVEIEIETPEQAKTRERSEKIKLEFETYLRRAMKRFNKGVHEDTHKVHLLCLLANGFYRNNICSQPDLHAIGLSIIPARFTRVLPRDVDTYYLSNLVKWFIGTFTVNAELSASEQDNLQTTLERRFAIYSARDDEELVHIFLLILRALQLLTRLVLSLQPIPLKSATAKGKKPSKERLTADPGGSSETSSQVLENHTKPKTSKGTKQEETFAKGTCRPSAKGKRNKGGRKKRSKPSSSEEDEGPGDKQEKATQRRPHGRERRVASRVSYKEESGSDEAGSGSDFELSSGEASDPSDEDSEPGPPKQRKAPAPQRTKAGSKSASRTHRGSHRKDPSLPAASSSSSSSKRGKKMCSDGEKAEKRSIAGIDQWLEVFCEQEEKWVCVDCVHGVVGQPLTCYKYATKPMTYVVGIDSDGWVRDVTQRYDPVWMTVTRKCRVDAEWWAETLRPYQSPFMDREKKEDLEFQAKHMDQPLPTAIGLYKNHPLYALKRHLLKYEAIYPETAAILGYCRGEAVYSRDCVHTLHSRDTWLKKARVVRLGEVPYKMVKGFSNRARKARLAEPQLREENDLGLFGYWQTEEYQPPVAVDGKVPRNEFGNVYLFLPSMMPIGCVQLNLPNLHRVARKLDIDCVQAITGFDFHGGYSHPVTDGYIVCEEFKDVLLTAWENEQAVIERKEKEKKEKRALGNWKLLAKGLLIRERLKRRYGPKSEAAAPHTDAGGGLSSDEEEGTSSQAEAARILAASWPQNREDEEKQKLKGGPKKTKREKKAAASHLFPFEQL
T2 sequence (P54727 whole entry, chain 2 of 2): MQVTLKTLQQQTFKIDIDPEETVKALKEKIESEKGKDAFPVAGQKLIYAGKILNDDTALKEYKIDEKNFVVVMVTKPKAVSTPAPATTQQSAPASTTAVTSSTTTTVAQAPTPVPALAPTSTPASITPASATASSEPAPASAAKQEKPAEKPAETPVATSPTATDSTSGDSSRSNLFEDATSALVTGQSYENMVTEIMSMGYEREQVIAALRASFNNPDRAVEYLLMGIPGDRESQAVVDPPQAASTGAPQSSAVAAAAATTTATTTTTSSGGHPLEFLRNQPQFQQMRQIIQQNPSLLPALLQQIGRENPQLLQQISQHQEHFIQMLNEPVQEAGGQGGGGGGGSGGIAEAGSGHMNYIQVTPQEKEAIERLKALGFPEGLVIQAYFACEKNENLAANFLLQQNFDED

XPC-RAD23B [2] = biological target: T2, XPC-RAD23B; experiment: SPR; 5 mM Mg2+; error as printed is 0.01e-9; SPR: HBS-P+ (10 mM HEPES, 150 mM NaCl, 0.05% P20), 5 mM MgCl2, 1 mM DTT, 100 ug/mL BSA (+0.5 mM ATP for UvrA), pH and temperature not stated; EMSA: 20 mM Hepes-KOH pH 7.9, 75 mM KCl, 5 mM MgCl2, 1 mM DTT, 5% glycerol, 100 ug/mL BSA, 30 C; settings: protein: recombinant; copies: 1;1; label: 5'-biotin on strand 1; blunt

Binder	Kd (UvrA) [nM]	Kd (XPC-RAD23B [1]) [nM]	Kd (XPC-RAD23B [2]) [nM]
B1	1.3	1.8	
B2	2.4	0.9	
B3	0.27	0.016	
B4	0.5	0.0042	
B5	3.9		1.1
B6	0.49	0.076	
